# Laboratory results published in the domain aggregation screens of Martell et al. (2025).
# Experiment: soluble fraction after stress (log2 fold change); higher = more stays soluble; pooled small domains, quantitative proteomics
# Conditions: stress: pH 4
# In short: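 Aggregation propensity here comes from the fold change in the soluble amount of each small protein domain after acid stress, measured in pooled custom libraries by high-throughput quantitative proteomics. The acid stress was pH 4. On the log2 scale, higher values mean more of the domain stayed soluble.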
row,Sequence,soluble fraction (log2)
1,HMVQARDQNIEEGRQLVLRELDRLDLVNESLTDVAADMNMKSVEDMYAAIGAGDLRVGQVVHAVLKRAD,-0.218
2,HMVQDSEWWRNYQSAHDYFIQNGHLNVLRSDKKNTKLYNWIVGQRSSRWNSQGRINLLNSIGFIWDT,-1.65
3,HMVQISNTDDLYPIVQRIVDANPQSVEDYKNGKAKALGFLVGQMMKETKGKANPSMVNDLIIKAIEE,0.0143
4,HMVQIVINKEVQTTSQTILRENAGTSSRNIGYVDPNVKLRATLDRNSFYFIPEKKGWIMKSRVKLIEDLS,0.0552
5,HMVQMNMLELQEEMQRDRSWIIKHLFQDEYFRRKIAKFSQFPINDSGKYLFHRKSMLKFLNDYAEEIVER,-1.46
6,HMVQPSAAVRAHPVGAFVEQRQGLSDDQILALQKKWNEGIYARIQGTRWFLFSKDTPAVTSLLLVPDLP,-0.0222
7,HMVQVHEWTNKAGRTIKAKFVRGDAQSVTIFLGGRNFVLKIADLSEESQALARKLSAPPPPP,0.0306
8,HMVQVPSLVGISEIEAKTLLTQAGFFVKIVEVFDANQPVGIVLAQAPSAGESRIIGSPVTITVNKAQ,-0.6
9,HMVQVRQPAGAGDLFAKGRLHLSTGTIHTVKPLEVDLPKGRLTVVTGVSGSGKTTLILESLLPALAAAAA,0.307
10,HMVRSLESESVYDRQRAYEIAYQLRTEERPYSFIATQLNKAGLRPQKAARYEWYSVQELLRSA,≥ 0.43
11,HMVSDISTQYQKIINEALDKQPEVKLADIVTMIKEQTSNKVQNGIVENVAKQMNGIEIIKIGQAKGVRRTT,0.152
12,HMVSDTGAIEAIVAQVLADNPKLVEGYLATPEDKRGKAIGPFIGLTRKAAAGVNPQVVMDVLKKKLSEL,-0.733
13,HMVSEASELTDTINKIGSLAQALVGANKLSKTDLVGIIKKYHTSANYNSITDIGVAKNILAELEAKN,-0.264
14,HMVSFSIDEALVSAVKGPRSANVMSIQRQFLVRLSVERDGRVTITGANSKSVQQAREAVEAAVEEAKLHP,0.238
15,HMVSGVMAQQAIAVLVQQEDKHAPLSDQALAERLQVQGIDISRRTVAKYRQLLQIPSAATRR,-0.0405
16,HMVSIGSQVAKRRRELRLTQQNLAEKMGVSFQAISSWEREEFLPDINKLQKLAAILNTKISYLLEE,-0.538
17,HMVSINETAFIQIKNSSATEIKEKITALKLDELKNVTITADIRTNKLIVVGPKATINKIQELVIELDTES,-0.49
18,HMVSKTEAMAVFIADKLQEGMVPANEILELYKGMQLSDRTIRNAKKQLGIVSIRKDGQWYWSL,-0.997
19,HMVSLPSPLAGKVVSLTVQAGQEVKEGDEIMVLEAMKMNTQVHAPSSGRILALRVQPGDQVEEGQTLVTMG,0.0584
20,HMVSLSNQVFEKIEYDILSGKYKIGEIISEKRLSSELGVSRTPIREALGRLSEEGLVGDSPSGTVVLGI,-0.287
21,HMVSRVTTPGVVGKTWQETKQILKQADLTVGSLTRDGKDVTPADGDLVTAQNPSAGQAIVRGSSVDLTFDK,0.0198
22,HMVSSYTMAIQINGKLRATHDFSVDTSQEDIKKIIINLPAIQKYINGVEIKKFIIVPQKIVNIV,-0.0406
23,HMVSTEDEISDKLLLDFALEKLSENEKQIVKLRYYNSLTQSKTAEILNMTQVQVSRSEKKILAKLRGII,0.0807
24,HMVSTGIMVVDGRGSVLQHNEAALRQLGVEVLTFESQVKEKLASEDFSVRETTAMLNGKKVRIIAFSDIR,-1.66
25,HMVSVEELLSSLDPNEATVLKLLAERSSGVDELMERSGLDFSALSEAITNLELFGYIAREMDGVYSFS,-1.78
26,HMVSVPDIGEKLPDFTGTPKRLLTPLLNKNDVNIIIKGDGWVVSQKPPAGTPVTKGMTIEFTL,-0.0317
27,HMVTDSGEIEKLVDEVIDNNPDQVQQFREGKQQVLSYLVGQAMKLSRGKANPNQVNQFLRDKL,0.152
28,HMVTDTGEIEAIIDRVISENPDSVSDFKNGKERALKFLMGQAMKESKGKANPQIVNELLLKKL,0.0343
